The numbers were not newly measured in article PMC10552185, which cites them from elsewhere.

This data set concerns the target RegA (Dictyostelium discoideum) (UniProt Q23917).

Chain of RegA (Dictyostelium discoideum) (Q23917 whole entry): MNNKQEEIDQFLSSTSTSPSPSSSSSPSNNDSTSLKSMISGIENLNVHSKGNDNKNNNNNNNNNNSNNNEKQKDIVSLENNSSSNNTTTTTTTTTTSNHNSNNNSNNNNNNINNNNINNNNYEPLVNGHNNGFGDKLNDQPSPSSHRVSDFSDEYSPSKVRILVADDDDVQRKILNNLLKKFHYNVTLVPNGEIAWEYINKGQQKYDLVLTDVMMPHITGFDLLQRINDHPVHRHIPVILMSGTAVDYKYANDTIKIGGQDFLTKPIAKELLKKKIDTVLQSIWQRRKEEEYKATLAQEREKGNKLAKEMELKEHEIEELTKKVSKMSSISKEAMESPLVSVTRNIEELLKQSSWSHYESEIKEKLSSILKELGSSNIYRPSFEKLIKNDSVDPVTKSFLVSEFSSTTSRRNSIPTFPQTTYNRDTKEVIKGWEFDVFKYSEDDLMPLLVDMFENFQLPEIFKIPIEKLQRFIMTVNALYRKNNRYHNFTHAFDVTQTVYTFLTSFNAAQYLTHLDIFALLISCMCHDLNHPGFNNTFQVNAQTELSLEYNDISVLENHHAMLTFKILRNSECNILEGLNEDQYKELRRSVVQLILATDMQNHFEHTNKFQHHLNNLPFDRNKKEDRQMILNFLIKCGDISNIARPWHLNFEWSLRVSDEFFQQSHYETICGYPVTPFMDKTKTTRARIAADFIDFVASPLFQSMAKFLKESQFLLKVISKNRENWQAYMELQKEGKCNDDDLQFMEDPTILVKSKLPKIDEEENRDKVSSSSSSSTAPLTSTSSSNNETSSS

Broadly, the Kd is the equilibrium constant for the complex coming apart. As to PKA RIα (from UniProt P10644), the Kd was 100 nM.
